The values that follow come from patent publication US20220372154A1 (APEXIGEN, published 2022).

Residue numbers refer to the chain shown, from its start.

In experiment [1] the target is T1, human TNFR2-His tagged protein (soluble) (human, UniProt P20333 23-257).
T1 construct: also called hTNFR2 (soluble); soluble TNFR2-His; not shown: His tag
T1 sequence (looked up): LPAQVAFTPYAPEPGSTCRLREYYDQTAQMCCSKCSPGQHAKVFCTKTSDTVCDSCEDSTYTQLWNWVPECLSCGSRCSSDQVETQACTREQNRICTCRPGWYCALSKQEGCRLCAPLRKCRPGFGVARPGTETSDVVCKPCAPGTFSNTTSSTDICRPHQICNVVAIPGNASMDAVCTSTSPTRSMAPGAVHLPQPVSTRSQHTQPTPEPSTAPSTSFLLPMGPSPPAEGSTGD
The experiment in a line: ELISA on coated human TNFR2-His. The procedure: (§1) In FIGS. 3A-3B, human (3A) or cynomolgus (3B) TNFR2-His tagged protein was coated on 96-well ELISA plates at 1 μg/mL and incubated overnight at 4° C. Plates were washed and blocked using 1% BSA. Antibodies were added for 1 hour at room temperature (RT), washed, and detected using anti-Human HRP. Assay was developed using TMB substrate for 3-5 minutes. In FIG. 3C, FACS binding was performed on CHO cells that were engineered to express human TNFR2. Briefly, antibodies were incubated with 200,000 cells in MACS buffer for 1 hour followed by wash and detection using anti-human IgG BV421 for 20 minutes. Samples were analyzed using Cytoflex or MACSQuant flow cytometers. In FIG. 3D, ligand blocking ELISA was performed by coating plates with 1 ug/mL TNFR-Fc overnight at 4° C. Plates were washed, blocked and antibodies were incubated for 1 hr at RT. […] Assay was developed using TMB substrate for 5-7 minutes.
(In general: In an ELISA, binding on a coated surface is turned into a signal by an enzyme label.)

Experiment [2] deals with T2, cynomolgus TNFR2-His tagged protein (cynomolgus, UniProt A0A2K5VET2 132-366).
T2 construct: also called Cyno TNFR2; cynomolgus TNFR2 protein; not shown: His tag
T2 sequence: T1 sequence (looked up) with S16G, S36P, P117Q, N164H, E210A, S216G, M223V
The experiment in a line: ELISA on coated cynomolgus TNFR2-His. The protocol: as §1

A further experiment has as its target T3, TNFR-Fc (UniProt P20333 23-257, limits assumed).
T3 construct: Printed only as TNFR-Fc; not shown: Fc part
T3 sequence (looked up): T1 sequence (looked up)
As to the kind of experiment: TNF-α blocking ELISA on coated TNFR-Fc. The procedure: as §1

Experiment [3] concerns the target T4, human TNFR2 expressed on cells (human, UniProt P20333 23-461).
T4 construct: whole, on cells; also called hTNFR2 (cell); CHO-TNFR2
T4 sequence (looked up): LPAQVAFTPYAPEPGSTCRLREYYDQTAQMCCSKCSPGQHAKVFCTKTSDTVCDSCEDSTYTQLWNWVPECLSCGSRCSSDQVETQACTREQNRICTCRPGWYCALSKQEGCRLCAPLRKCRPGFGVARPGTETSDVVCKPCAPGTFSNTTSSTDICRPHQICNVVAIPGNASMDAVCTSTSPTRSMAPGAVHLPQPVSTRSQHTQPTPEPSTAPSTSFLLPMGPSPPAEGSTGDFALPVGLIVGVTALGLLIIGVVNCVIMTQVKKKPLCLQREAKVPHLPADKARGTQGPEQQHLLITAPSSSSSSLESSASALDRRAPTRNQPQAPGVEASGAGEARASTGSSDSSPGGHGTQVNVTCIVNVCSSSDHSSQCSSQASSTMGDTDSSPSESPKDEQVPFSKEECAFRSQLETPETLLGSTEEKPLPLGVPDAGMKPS
As to the kind of experiment: flow cytometry on CHO cells expressing human TNFR2. The protocol: as §1

The next experiment deals with T5, soluble mouse TNFR2 (mouse, UniProt P25119 23-258, limits assumed).
T5 sequence (looked up): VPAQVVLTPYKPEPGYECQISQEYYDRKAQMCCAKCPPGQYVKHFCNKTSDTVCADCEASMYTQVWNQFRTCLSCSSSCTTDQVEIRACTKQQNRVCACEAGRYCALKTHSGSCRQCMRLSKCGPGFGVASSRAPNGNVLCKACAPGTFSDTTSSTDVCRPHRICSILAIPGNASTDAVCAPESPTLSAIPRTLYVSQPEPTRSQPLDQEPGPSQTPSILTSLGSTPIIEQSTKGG
The experiment in a line: binding screen on soluble mouse TNFR2 (mouse cross-reactivity).

B1: chimeric antibody clone 102 (rab600_23_102) (antibody, V domains shown)
VH: QSVEESGGRLVTPGTPLTLTCTASGFSLSTYDMIWVRQAPGKGLEWIGYIWSDGITDYASWAKGRFTISKTSTTVDLKVTSPTTEDTATYFCARDVGYAGYGYYFDLWGQGTLVTVSS
VL: ALVMTQTPASVEVAVGGTVTIKCQASQSITNYLAWYRQKPGQPPKLLIYGASKLASGVPSRFSGSGSGTEYTLTISGVQCDDAATYYCQQGYTSSNVDNPFGGGTEVVVK
For B1, the EC50 in experiment [1] stood at 207 pM; in experiment [2], 327 pM; in experiment [3] it was 90.1 pM. Also, in the experiment with TNFR-Fc, the 50% inhibitory concentration (IC50) was 100000 pM. Moreover, the binding result with soluble mouse TNFR2 is “no binding”.

B2: chimeric antibody clone 108 (taken as rab600_25_108) (antibody, V domains shown)
VH: QSVEESGGRLVTPGTPLTLTCKASGFSLSDYFMTWVRQAPGKGLEWIGIINTGGDSYYATWAKGRFTISKTSTTVDLKISSPTTEDTATYFCARDTGYGGYDYAGSFDPWGPGTLVTVSS
VL: AIKMTQTPASVSEPVGGTVTIKCQASENINSWLAWYQQKPGQPPKLLIYEASKLASGVPSRFKGSGSGTQFTLTISDLECADAATYYCQQGYIYIDVGNIFGGGTEVVVK
For the molecule B2, the EC50 in experiment [1] came out at 256 pM; in experiment [2] it was 327 pM; in experiment [3], 180 pM. In addition, in the experiment with TNFR-Fc, 4560 pM corresponded to half-maximal inhibition (IC50). In addition, the binding result in the experiment with soluble mouse TNFR2 is reported as “no binding”.

B3: chimeric antibody clone 57 (rab600_23_57) (antibody, V domains shown)
VH: QSVEESGGRLVTPGTPLTLTCTVSGFSLSSYAMGWVRQAPGKGLEWIGIIGSGGNTYYATWAKGRFTISRTSTTVDLRITSPTTEDTATYFCARDVGYGDYDALDLWGQGTLVTVSS
VL: DVVMTQTPSSVSEPVGGTVTIKCQASEEISSNLAWYQQKPGQPPKLLMYAASNLASGVSSRLKGSRSGTDYTLTISGVQCDDAATYFCQCTYIGSGYVVAFGGGTEVVVK
Take B3: the EC50 in experiment [1] turned out to be 67 pM; in experiment [2] it was 57 pM; in experiment [3] it was 73 pM. Half-maximal inhibition with TNFR-Fc (IC50) was put at 741 pM. The binding result in the experiment with soluble mouse TNFR2 was “no binding”.

B4: chimeric antibody clone 4 (rab600_23_4) (antibody, V domains shown)
VH: QSVEESGGRLVTPGTPLTLTCTVSGIDLSSYTMGWVRQAPGKGLEYIGFISSSGHTYYANWAKGRFTISKTSSTTVDLKMTSLTTEDTATYFCARDGGYGGYDYTGIFNLWGQGTLVTVSS
VL: DIVMTQTASPVSAAVGGTVTIKCQATESISSWLAWYQQKPGQPPKLLIYGASTLESGVPSRFSGSGSGTEFTLTISGVQCDDAATYYCQQGYIYTNVDNTFGGGTEVVVK
Turning to B4, the values for the EC50 in experiment [1], in experiment [2] and in experiment [3] were 94 pM, 99 pM and 147 pM, respectively. In addition, the IC50 with TNFR-Fc amounted to 2740 pM. Besides, the binding result in the experiment with soluble mouse TNFR2 is listed as “no binding”.

B5: chimeric antibody clone 37 (rab600_25_37) (antibody, V domains shown)
VH: QSVEESGGRLVTPGTPLILTCTVSGIDLSNYAMGWFRQAPGEGLEWIGSRRTDGITYYANWAEGRFTISRTSTTVDLEITSPTTEDTATYFCGRDVGGDGGWYFNLWGPGTLVTVSS
VL: AGDMTQTPASVEVAVGGTVTIKCQASQSINIYLAWYQQKPGQPPKLLIYDASKLASGVPSRFSGSGSGTEFTLTISDLECADAATYYCQQGINNIGFGGGTEVVVK
For B5, the values for the EC50 in experiment [1], in experiment [2] and in experiment [3] were 126 pM, 148 pM and 100 pM, respectively. Also, the IC50 with TNFR-Fc came to 3250 pM. Also, in the experiment with soluble mouse TNFR2, the binding result is given as “no binding”.

B6: chimeric antibody clone 107 (rab600_23_107) (antibody, V domains shown)
VH: QSVEESGGRLVTPGTPLTLTCTVSGFSLSSNAISWVRQAPGKGLEWIGIINTYDNTAYATWAKGRFSISRTSTTVDLKITSPATKDTATYFCARDVHNNVVPYYFDMWGQGTLVTVSS
VL: AYDMTQTPATVEVAVGGTVTINCQASQSISNLLAWYQQKPGQRPKLLIYDTSDLASGVPSRFSGSGSGTEYTLTITGVECADAATYYCQQGYSSSNIDNVFGGGTEVVVK
As for B6, the EC50 came to 325 pM in experiment [1], 315 pM in experiment [2] and 485 pM in experiment [3]. In the experiment with TNFR-Fc, half-maximal inhibition (IC50) required 2220 pM. Besides, the binding result in the experiment with soluble mouse TNFR2 is on record as “no binding”.

B7: chimeric antibody clone 42 (rab600_25_42) (antibody, V domains shown)
VH: QSLEESGGRLVTPGTPLTLTCTVSGIDLSTYAMIWVRQAPGKGLEYIGFIRPGGSAWYASWAKGRFTISKTSTTVDREITSPTTEDTATYFCATYDTYGYGDTRLWGPGTLVTVSS
VL: AYDMTQTPASVEVAVGGTVTIKCQASESIFSYLAWYQQKPGQRPKLLIYYASTLASGVPSRFKGSGSGTQFTLTISGVECADAATYYCQQGYDFSAVDNVFGGGTEVVVK
As to B7, the concentration giving a half-maximal response (EC50) in experiment [1] turned out to be 242 pM; in experiment [2], 184 pM; in experiment [3] it was 91 pM. Also, in the experiment with TNFR-Fc, half-maximal inhibition (IC50) required 11200 pM. For the same molecule, the binding result with soluble mouse TNFR2 is reported as “no binding”.

B8: chimeric antibody clone 92 (rab600_25_92) (antibody, V domains shown)
VH: QSVEESGGRLVKPDETLTLICTVSGFSLSSHHMIWVRQAPGEGLEGIGIIDAGSGSTYYASWAKGRFTISRTSTTVDLKIASPTTEDTATYFCARGGLTESLGTYFDLWGPGTLVTVSS
VL: DIVMTQTPASVEAAVGGTVTIKCQASESIDSGLAWYQQKPGQRPKLLIYDSSTLASGVPSRFKGSGSGTDFTLTISDLECADAATYYCQSNYDTGSSVYDWGSFGGGTEVVVK
Consider B8, for which the EC50 in experiment [1] was determined as 131 pM; in experiment [2], 191 pM; in experiment [3] it was 86 pM. This molecule came in with an IC50 in the experiment with TNFR-Fc of 3060 pM. For the same molecule, the binding result with soluble mouse TNFR2 was “no binding”.

B9: chimeric antibody clone 127 (rab600_23_127) (antibody, V domains shown)
VH: QEQLEESGGDLVKPEGSLTLTCTASGFDFSVNAMCWVRQAPGKGPEWIAYISNADGSTHYASWVNGRFTISRSTSLNTVTLQMTRLTVSDTATYFCARAPYAGYTGYGYLNLWGPGTLVTVSS
VL: DVVMTQTPASVSGPVGGTVTIKCQASQNIDSDLAWYQQKPGQRPKLLIYDASKLASGVPSRFSGSGYGTEFTLTISGVQCEDAATYYCQYTYYINTYGGAFGGGTEVVVK
As to B9, the concentration for a half-maximal effect (EC50) in experiment [1] stood at 313 pM; in experiment [2], 60000 pM; in experiment [3] it was 110 pM. In addition, in the experiment with TNFR-Fc, the concentration for half-maximal inhibition (IC50) turned out to be 6620 pM. Also, the binding result with soluble mouse TNFR2 was “no binding”.

B10: chimeric antibody clone 11D7.1 (rab600_23_11D7.1) (antibody, V domains shown)
VH: QEQLEESGGGLVQPGGSLKLSCKASGFDFSRYYMSWVRQAPGKGLEWIGYIDPIFGNTYYASWVNGRFTISSHNAQNTLYLQLNNLTAADTATYFCARDGDAGYDGYGYGTDLWGPGTLVTVSS
VL: QVLTQTPSSVSEPVGGTVTINCQASENIYSGLAWYQQKPGQPPKLLIVSAFTLASGVPSRFKGSGTGTEFTLTISGVQCDDAATYYCQTYYYGSVTYFNAFGGGTEVVVK
notes: also called rab600_23_HD7.1
In the case of B10, the results for the EC50 in experiment [1], in experiment [2] and in experiment [3] were 140 pM, 39.6 pM and 170 pM, respectively. This molecule displayed a half-maximal inhibitory concentration (IC50) with TNFR-Fc of 6100 pM. Besides, the binding result in the experiment with soluble mouse TNFR2 is listed as “no binding”.

As a reminder, the EC50 is the concentration at which the effect is half-maximal. A lower EC50 goes with a more potent agent. One may read the IC50 as the point on the concentration scale where inhibition reaches its midpoint. The low end stands for greater potency, the high end for weaker potency.
